In PMC5566498, “SIRT7 antagonizes TGF-β signaling and inhibits breast cancer metastasis” (Nature Communications, 2017):

Molecular target: T1, 6× His-tagged SMAD4 (UniProt Q13485 1-552)
T1 construct: SMAD4; also called 6× His-SMAD4; source: purified from bacterial culture
T1 sequence (looked up): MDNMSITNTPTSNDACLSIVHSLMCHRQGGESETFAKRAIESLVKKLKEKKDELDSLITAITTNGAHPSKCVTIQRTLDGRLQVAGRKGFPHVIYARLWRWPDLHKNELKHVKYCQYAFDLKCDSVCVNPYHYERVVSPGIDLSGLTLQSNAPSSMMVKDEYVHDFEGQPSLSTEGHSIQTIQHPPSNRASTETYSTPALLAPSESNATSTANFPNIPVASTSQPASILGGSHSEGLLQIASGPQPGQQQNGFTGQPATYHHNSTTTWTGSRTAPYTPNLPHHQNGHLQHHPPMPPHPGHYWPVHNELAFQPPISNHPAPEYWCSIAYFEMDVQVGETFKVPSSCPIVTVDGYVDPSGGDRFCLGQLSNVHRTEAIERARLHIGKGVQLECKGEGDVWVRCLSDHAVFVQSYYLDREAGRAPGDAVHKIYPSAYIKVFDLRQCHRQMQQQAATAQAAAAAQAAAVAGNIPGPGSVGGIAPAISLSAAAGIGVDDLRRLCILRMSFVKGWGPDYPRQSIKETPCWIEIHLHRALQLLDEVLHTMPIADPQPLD
Assay: pull-down; 1 µg GST-SIRT7 on Glutathione-Sepharose 4B, incubated with 6× His-SMAD4 for 2 h at 4 °C in 120 mM KCl, 20 mM Tris-HCl pH 7.9, 5 mM MgCl2, 0.2 mM EDTA, 10% glycerol, 0.2% NP-40; immunoblot
Details: both partners purified

B1: GST-SIRT7 (enzyme, UniProt Q9NRC8 1-400, looked up)
chain: MAAGGLSRSERKAAERVRRLREEQQRERLRQVSRILRKAAAERSAEEGRLLAESADLVTELQGRSRRREGLKRRQEEVCDDPEELRGKVRELASAVRNAKYLVVYTGAGISTAASIPDYRGPNGVWTLLQKGRSVSAADLSEAEPTLTHMSITRLHEQKLVQHVVSQNCDGLHLRSGLPRTAISELHGNMYIEVCTSCVPNREYVRVFDVTERTALHRHQTGRTCHKCGTQLRDTIVHFGERGTLGQPLNWEAATEAASRADTILCLGSSLKVLKKYPRLWCMTKPPSRRPKLYIVNLQWTPKDDWAALKLHGKCDDVMRLLMAELGLEIPAYSRWQDPIFSLATPLRAGEEGSHSRKSLCRSREEAPPGDRGAPLSSAPILGGWFGRGCTKRTKRKKVT
notes: SIRT7; also called purified GST-SIRT7; recombinant GST-SIRT7; source: recombinant, purified
B1: binds.
